{
  "source": "the Human Domainome abundance scans (Beltran et al. 2025)",
  "parents": {"B1": {"name": "Homeobox protein cut-like 2, residues 895 to 963; numbered along this chain, O14529 (parent)", "chain": "EVDTLELTRQVKEKLAKNGICQRIFGEKVLGLSQGSVSDMLSRPKPWSKLTQKGREPFIRMQLWLSDQL"}},
  "note": "± gives the uncertainty stated by the source.",
  "data": [
    {"variants_of": "B1", "assay": "abundance fitness (aPCA) (normalised: wild type 0, dead -1); higher = more abundant; growth selection in yeast, the domain comes from the species named", "conditions": "Homo sapiens", "values": [
      {"variant": "EVDTLELTRQVKEKLAKNGICIRIFGEKVLGLSQGSVSDMLSRPKPWSKLTQKGREPFIRMQLWLSDQL", "note": "[Q22I]", "abundance fitness": "-0.223 ± 0.1"},
      {"variant": "EVDTLELTRQVKEKLAKNGICRRIFGEKVLGLSQGSVSDMLSRPKPWSKLTQKGREPFIRMQLWLSDQL", "note": "[Q22R]", "abundance fitness": "-0.062 ± 0.044"},
      {"variant": "EVDTLELTRQVKEKLAKNGICLRIFGEKVLGLSQGSVSDMLSRPKPWSKLTQKGREPFIRMQLWLSDQL", "note": "[Q22L]", "abundance fitness": "-0.003 ± 0.032"},
      {"variant": "EVDTLELTRQVKEKLAKNGICPRIFGEKVLGLSQGSVSDMLSRPKPWSKLTQKGREPFIRMQLWLSDQL", "note": "[Q22P]", "abundance fitness": "-0.073 ± 0.06"},
      {"variant": "EVDTLELTRQVKEKLAKNGICWRIFGEKVLGLSQGSVSDMLSRPKPWSKLTQKGREPFIRMQLWLSDQL", "note": "[Q22W]", "abundance fitness": "-0.021 ± 0.042"},
      {"variant": "EVDTLELTRQVKEKLAKNGICNRIFGEKVLGLSQGSVSDMLSRPKPWSKLTQKGREPFIRMQLWLSDQL", "note": "[Q22N]", "abundance fitness": "-0.461 ± 0.14"},
      {"variant": "EVDTLELTRQVKEKLAKNGICTRIFGEKVLGLSQGSVSDMLSRPKPWSKLTQKGREPFIRMQLWLSDQL", "note": "[Q22T]", "abundance fitness": "-0.151 ± 0.059"},
      {"variant": "EVDTLELTRQVKEKLAKNGICFRIFGEKVLGLSQGSVSDMLSRPKPWSKLTQKGREPFIRMQLWLSDQL", "note": "[Q22F]", "abundance fitness": "-0.182 ± 0.07"},
      {"variant": "EVDTLELTRQVKEKLAKNGICCRIFGEKVLGLSQGSVSDMLSRPKPWSKLTQKGREPFIRMQLWLSDQL", "note": "[Q22C]", "abundance fitness": "-0.306 ± 0.1"},
      {"variant": "EVDTLELTRQVKEKLAKNGICSRIFGEKVLGLSQGSVSDMLSRPKPWSKLTQKGREPFIRMQLWLSDQL", "note": "[Q22S]", "abundance fitness": "-0.089 ± 0.032"},
      {"variant": "EVDTLELTRQVKEKLAKNGICGRIFGEKVLGLSQGSVSDMLSRPKPWSKLTQKGREPFIRMQLWLSDQL", "note": "[Q22G]", "abundance fitness": "-0.354 ± 0.049"},
      {"variant": "EVDTLELTRQVKEKLAKNGICDRIFGEKVLGLSQGSVSDMLSRPKPWSKLTQKGREPFIRMQLWLSDQL", "note": "[Q22D]", "abundance fitness": "-0.457 ± 0.21"},
      {"variant": "EVDTLELTRQVKEKLAKNGICERIFGEKVLGLSQGSVSDMLSRPKPWSKLTQKGREPFIRMQLWLSDQL", "note": "[Q22E]", "abundance fitness": "-0.011 ± 0.061"},
      {"variant": "EVDTLELTRQVKEKLAKNVICQRIFGEKVLGLSQGSVSDMLSRPKPWSKLTQKGREPFIRMQLWLSDQL", "note": "[G19V]", "abundance fitness": "-0.417 ± 0.057"},
      {"variant": "EVDTLELTRQVKEKLAKNTICQRIFGEKVLGLSQGSVSDMLSRPKPWSKLTQKGREPFIRMQLWLSDQL", "note": "[G19T]", "abundance fitness": "-0.332 ± 0.097"},
      {"variant": "EVDTLELTRQVKEKLAKNPICQRIFGEKVLGLSQGSVSDMLSRPKPWSKLTQKGREPFIRMQLWLSDQL", "note": "[G19P]", "abundance fitness": "-0.005 ± 0.15"},
      {"variant": "EVDTLELTRQVKEKLAKNSICQRIFGEKVLGLSQGSVSDMLSRPKPWSKLTQKGREPFIRMQLWLSDQL", "note": "[G19S]", "abundance fitness": "-0.01 ± 0.062"},
      {"variant": "EVDTLELTRQVKEKLAKNYICQRIFGEKVLGLSQGSVSDMLSRPKPWSKLTQKGREPFIRMQLWLSDQL", "note": "[G19Y]", "abundance fitness": "-0.122 ± 0.057"},
      {"variant": "EVDTLELTRQVKEKLAKNQICQRIFGEKVLGLSQGSVSDMLSRPKPWSKLTQKGREPFIRMQLWLSDQL", "note": "[G19Q]", "abundance fitness": "-0.242 ± 0.07"},
      {"variant": "EVDTLELTRQVKEKLAKNWICQRIFGEKVLGLSQGSVSDMLSRPKPWSKLTQKGREPFIRMQLWLSDQL", "note": "[G19W]", "abundance fitness": "-0.341 ± 0.06"},
      {"variant": "EVDTLELTRQVKEKLAKNRICQRIFGEKVLGLSQGSVSDMLSRPKPWSKLTQKGREPFIRMQLWLSDQL", "note": "[G19R]", "abundance fitness": "0.032 ± 0.065"},
      {"variant": "EVDTLELTRQVKEKLAKNGICQVIFGEKVLGLSQGSVSDMLSRPKPWSKLTQKGREPFIRMQLWLSDQL", "note": "[R23V]", "abundance fitness": "-0.162 ± 0.03"},
      {"variant": "EVDTLELTRQVKEKLAKNGICQCIFGEKVLGLSQGSVSDMLSRPKPWSKLTQKGREPFIRMQLWLSDQL", "note": "[R23C]", "abundance fitness": "-0.317 ± 0.091"},
      {"variant": "EVDTLELTRQVKEKLAKNGICQLIFGEKVLGLSQGSVSDMLSRPKPWSKLTQKGREPFIRMQLWLSDQL", "note": "[R23L]", "abundance fitness": "-0.203 ± 0.029"},
      {"variant": "EVDTLELTRQVKEKLAKNGICQIIFGEKVLGLSQGSVSDMLSRPKPWSKLTQKGREPFIRMQLWLSDQL", "note": "[R23I]", "abundance fitness": "-0.192 ± 0.094"},
      {"variant": "EVDTLELTRQVKEKLAKNGICQGIFGEKVLGLSQGSVSDMLSRPKPWSKLTQKGREPFIRMQLWLSDQL", "note": "[R23G]", "abundance fitness": "-0.103 ± 0.048"},
      {"variant": "EVDTLELTRQVKEKLAKNGICQHIFGEKVLGLSQGSVSDMLSRPKPWSKLTQKGREPFIRMQLWLSDQL", "note": "[R23H]", "abundance fitness": "-0.094 ± 0.096"},
      {"variant": "EVDTLELTRQVKEKLAKNGICQEIFGEKVLGLSQGSVSDMLSRPKPWSKLTQKGREPFIRMQLWLSDQL", "note": "[R23E]", "abundance fitness": "0.068 ± 0.047"},
      {"variant": "EVDTLELTRQVKEKLAKNGICQSIFGEKVLGLSQGSVSDMLSRPKPWSKLTQKGREPFIRMQLWLSDQL", "note": "[R23S]", "abundance fitness": "-0.101 ± 0.035"},
      {"variant": "EVDTLELTRQVKEKLAKNGICQAIFGEKVLGLSQGSVSDMLSRPKPWSKLTQKGREPFIRMQLWLSDQL", "note": "[R23A]", "abundance fitness": "-0.106 ± 0.039"},
      {"variant": "EVDTLELTRQVKEKLAKNGICQKIFGEKVLGLSQGSVSDMLSRPKPWSKLTQKGREPFIRMQLWLSDQL", "note": "[R23K]", "abundance fitness": "0.047 ± 0.049"},
      {"variant": "EVDTLELTRQVKEKLAKNGICQNIFGEKVLGLSQGSVSDMLSRPKPWSKLTQKGREPFIRMQLWLSDQL", "note": "[R23N]", "abundance fitness": "0.038 ± 0.13"},
      {"variant": "EVDTLELTRQVKEKLAKNGICQTIFGEKVLGLSQGSVSDMLSRPKPWSKLTQKGREPFIRMQLWLSDQL", "note": "[R23T]", "abundance fitness": "-0.155 ± 0.044"},
      {"variant": "EVDTLELTRQVKEKLAKNGICQQIFGEKVLGLSQGSVSDMLSRPKPWSKLTQKGREPFIRMQLWLSDQL", "note": "[R23Q]", "abundance fitness": "-0.079 ± 0.048"},
      {"variant": "EVDTLELTRQVKEKLAKNGICQPIFGEKVLGLSQGSVSDMLSRPKPWSKLTQKGREPFIRMQLWLSDQL", "note": "[R23P]", "abundance fitness": "-0.627 ± 0.051"},
      {"variant": "EVDTLELTRQVKEKLAKNGICQWIFGEKVLGLSQGSVSDMLSRPKPWSKLTQKGREPFIRMQLWLSDQL", "note": "[R23W]", "abundance fitness": "-0.154 ± 0.044"},
      {"variant": "EVDTLELTRQVKEKLAKNGICQMIFGEKVLGLSQGSVSDMLSRPKPWSKLTQKGREPFIRMQLWLSDQL", "note": "[R23M]", "abundance fitness": "-0.207 ± 0.034"},
      {"variant": "EVDTLELTRQVKEKLAKNGICQDIFGEKVLGLSQGSVSDMLSRPKPWSKLTQKGREPFIRMQLWLSDQL", "note": "[R23D]", "abundance fitness": "-0.042 ± 0.15"},
      {"variant": "EVDTLELTRQVKEKLAKNGICQFIFGEKVLGLSQGSVSDMLSRPKPWSKLTQKGREPFIRMQLWLSDQL", "note": "[R23F]", "abundance fitness": "-0.009 ± 0.056"}
    ]}
  ]
}
